{
  "source": "paper PMC4787811",
  "about": "(Nucleic Acids Research, 2015)",
  "binders": {"B1": {"name": "30 bp fork, 3' T20 and 5' C8, top strand labelled (dsDNA)", "DNA 1": "GGCTTGTATTTCACACCGCACCTCAGCGCGTTTTTTTTTTTTTTTTTTTT", "DNA 2": "CCCCCCCCCGCGCTGAGGTGCGGTGTGAAATACAAGCC"}, "B2": {"name": "30 bp fork, 3' T20 and 5' C8, bottom strand labelled (dsDNA)", "DNA 1": "B1 DNA 1", "DNA 2": "CCCCCCCCCGCGCTGAGGTGCGGTGTGAAATACAAG"}, "B3": {"name": "RFJ 10 bp fork, 3' T20 and 5' C10 (dsDNA)", "DNA 1": "CCTCAGCGCGTTTTTTTTTTTTTTTTTTTT", "DNA 2": "CCCCCCCCCCCGCGCTGAGG"}, "B4": {"name": "RFJ 10 bp fork, 5' dsDNA biotin (dsDNA)", "DNA 1": "B3 DNA 1", "DNA 2": "CCCCCCCCCCCGCGCTGAGG"}, "B5": {"name": "RFJ 10 bp fork, 5' dsDNA biotin and 5' ssDNA digoxigenin (dsDNA)", "DNA 1": "B3 DNA 1", "DNA 2": "CCCCCCCCCCCGCGCTGAGG"}, "B6": {"name": "E1 helicase domain (residues 299-605) (domain or fragment)", "chain": "QTTLNESLQTEKFDFGTMVQWAYDHKYAEESKIAYEYALAAGSDSNARAFLATNSQAKHVKDCATMVRHYLRAETQALSMPAYIKARCKLATGEGSWKSILTFFNYQNIELITFINALKLWLKGIPKKNCLAFIGPPNTGKSMLCNSLIHFLGGSVLSFANHKSHFWLASLADTRAALVDDATHACWRYFDTYLRNALDGYPVSIDRKHKAAVQIKAPPLLVTSNIDVQAEDRYLYLHSRVQTFRFEQPCTDESGEQPFNITDADWKSFFVRLWGRLDLIDEEEDSEEDGDSMRTFTCSARNTNAVD"}, "B7": {"name": "full length BPV-1 E1 helicase (enzyme)", "chain": "MANDKGSNWDSGLGCSYLLTEAECESDKENEEPGAGVELSVESDRYDSQDEDFVDNASVFQGNHLEVFQALEKKAGEEQILNLKRKVLGSSQNSSGSEASETPVKRRKSGAKRRLFAENEANRVLTPLQVQGEGEGRQELNEEQAISHLHLQLVKSKNATVFKLGLFKSLFLCSFHDITRLFKNDKTTNQQWVLAVFGLAEVFFEASFELLKKQCSFLQMQKRSHEGGTCAVYLICFNTAKSRETVRNLMANTLNVREECLMLQPAKIRGLSAALFWFKSSLSPATLKHGALPEWIRAQTTLNESLQTEKFDFGTMVQWAYDHKYAEESKIAYEYALAAGSDSNARAFLATNSQAKHVKDCATMVRHYLRAETQALSMPAYIKARCKLATGEGSWKSILTFFNYQNIELITFINALKLWLKGIPKKNCLAFIGPPNTGKSMLCNSLIHFLGGSVLSFANHKSHFWLASLADTRAALVDDATHACWRYFDTYLRNALDGYPVSIDRKHKAAVQIKAPPLLVTSNIDVQAEDRYLYLHSRVQTFRFEQPCTDESGEQPFNITDADWKSFFVRLWGRLDLIDEEEDSEEDGDSMRTFTCSARNTNAVD"}},
  "key": {"E1FL (full-length E1) [1]": {"target": "T1, E1FL (full-length E1) (bovine papillomavirus (BPV-1), UniProt P03116 1-605)", "experiment": "hydroxyl radical footprinting", "settings": "protein: recombinant; tags: GST fusion, tag cleaved with thrombin and removed; chain copies: 6; label: 5'-32P on top strand; fork: 30 bp duplex, 3' T20 and 5' C8 arms"}, "E1FL (full-length E1) [2]": {"target": "T1, E1FL (full-length E1)", "experiment": "hydroxyl radical footprinting; 10-fold excess unlabelled T18 competitor; similar protection to top strand", "settings": "protein: recombinant; tags: GST fusion, tag cleaved with thrombin and removed; chain copies: 6; label: 3'-32P on bottom strand; fork: 3' T20 and 5' C8 arms; 29 bp as printed before labelling"}, "E1FL (full-length E1) [3]": {"target": "T1, E1FL (full-length E1)", "experiment": "gel filtration (SEC); no nucleotide cofactor; 50 uM E1, E1:DNA 6:1", "settings": "protein: recombinant; tags: GST fusion, tag cleaved with thrombin and removed; chain copies: 6; fork: 10 bp duplex, 3' T20 and 5' C10 arms"}, "E1FL (full-length E1) [4]": {"target": "T1, E1FL (full-length E1)", "experiment": "gel filtration (SEC) and negative stain EM (20 A); streptavidin (MTS) bound to biotin", "settings": "protein: recombinant; tags: GST fusion, tag cleaved with thrombin and removed; chain copies: 6; label: 5'-biotin on top strand (dsDNA end); fork: 10 bp duplex, 3' T20 and 5' C10 arms"}, "E1FL (full-length E1) [5]": {"target": "T1, E1FL (full-length E1)", "experiment": "gel filtration (SEC) and negative stain EM (20 A); streptavidin (MTS) and anti-digoxigenin Fab bound to labels", "settings": "protein: recombinant; tags: GST fusion, tag cleaved with thrombin and removed; chain copies: 6; label: 5'-biotin on top strand; 5'-digoxigenin on bottom strand; fork: 10 bp duplex, 3' T20 and 5' C10 arms"}, "[6]": {"target": "the molecule itself", "experiment": "negative-stain EM, single particle 3D reconstruction"}, "E1FL (full-length E1) [7]": {"target": "T1, E1FL (full-length E1)", "experiment": "gel filtration (SEC) and negative stain EM; no nucleotide cofactor; 50 uM E1, E1:DNA 6:1", "settings": "protein: recombinant; tags: GST fusion, tag cleaved with thrombin and removed; chain copies: 6; single strand"}},
  "data": [
    {"binder": "B1", "values": [
      {"measurement": "binding result", "setting": "E1FL (full-length E1) [1]", "result": "binds"}
    ]},
    {"binder": "B2", "values": [
      {"measurement": "binding result", "setting": "E1FL (full-length E1) [2]", "result": "binds"}
    ]},
    {"binder": "B3", "values": [
      {"measurement": "binding result", "setting": "E1FL (full-length E1) [3]", "result": "binds"}
    ]},
    {"binder": "B4", "values": [
      {"measurement": "binding result", "setting": "E1FL (full-length E1) [4]", "result": "binds"}
    ]},
    {"binder": "B5", "values": [
      {"measurement": "binding result", "setting": "E1FL (full-length E1) [5]", "result": "binds"}
    ]},
    {"binder": "B6", "values": [
      {"measurement": "binding result", "setting": "[6]", "result": "binds"}
    ]},
    {"binder": "TTTTTTTTTTTTTTTTTTTTTTTTTTTTTT (ssDNA)", "note": "[ssDNA T30]", "values": [
      {"measurement": "binding result", "setting": "E1FL (full-length E1) [7]", "result": "binds"}
    ]},
    {"binder": "B7", "values": [
      {"measurement": "stoichiometry N", "setting": "[6]", "result": 6}
    ]}
  ]
}
